Assay results reported in US20210379147A1, “METHOD AND SYSTEM FOR TREATING CANCER UTILIZING TINAGL1” (The Trustees of Princeton University, priority 2018, published 2021).

How the values were obtained:
LM2 cells [1] = test: Experimental lung metastasis after intravenous injection of LM2 cells, BLI and nodule count; assay type: in vivo, NSG mice
Protocol: FIG. 6 is a graph of lung metastasis burden measured by BLI every week, for NSG mice under one of three treatment regimens: 1) PBS immediately following injection (510), 2) PBS for the first two weeks followed by r-Tinagl1 treatment (520), and 3) r-Tinagl1 immediately after injection (530).
Referring to FIG. 6, to further evaluate the therapeutic potential of r-Tinagl1 treatment during metastasis, LM2 cells were injected intravenously to generate lung metastasis, and the mice were separated into three distinct treatment groups: 1) PBS immediately following injection (510), 2) PBS for the first two weeks followed by r-Tinagl1 treatment (520), and 3) r-Tinagl1 immediately after injection (530).
(§1) For xenograft studies, 8-weeks immunocompromised NOD Scid Gamma (NSG) or immunocompetent FVB females were used. Cells were suspended in 10 μl of PBS for mammary gland injection (MFP), or were suspended in 100 μl of PBS for intravenous injection. For human patient-derived xenograft (PDX, HCL001, kindly provided by Dr. Alana Welm) study, we followed the standard protocol for PDX transplantation, maintenance and digestion of the tumors (DeRose et al., 2011). 2×10^4 cells were suspended in 10 μl of PBS and subjected to MFP injection. For recombinant Tinagl1 (r-Tinagl1), ATN-161, Erlotinib treatments, the mice were injected with 30 μg/mouse, 30 μg/mouse, and 100 mg/kg respectively twice per week via tail-vein. Primary tumors were quantified once per week via caliper measurement. All cell lines used for lung metastasis experiments were stably labeled with a firefly luciferase expressing vector and were monitored by weekly bioluminescent imaging (BLI). At protocol-defined endpoints, lungs were dissected and fixed in bouin's solution and the metastatic lesions were counted.

EGFR = EGFR (Homo sapiens, UniProt P00533); test: EGF-induced EGFR activation in LM2 cells (WB); assay type: cell-based; conditions: 1 hour pre-treatment, then EGF 10 min
Protocol: FIG. 11A is an image of WB analyses where LM2 cells with or without 1 hour pre-treatment of the indicated amount of r-Tinagl1 were then treated with indicated amount of EGF for another 10 min, then lysed.
For WB analysis, cells were collected and lysed with IP lysis buffer described above. After boiled with SDS laemmli buffer, the samples were resolved with SDS-PAGE gel and immunoblotted with standard protocols.
Cells were treated with r-Tinagl1 and the activity of EGFR and integrin/FAK signaling pathways was evaluated. To test EGFR activation, the LM2 cells were subjected to EGF, r-Tinagl1, or EGF/r-Tinagl1 combined treatment. […] Referring to FIGS. 11B and 11C, EGF-dependent activation of EGFR was similarly attenuated in cells expressing Tinagl1 compared to control cells.

SUM159-M1a cells = test: Cell adhesion assay of SUM159-M1a cells on coated plates (luciferase); assay type: cell-based, human
Protocol: FIG. 15A is an graph of attached cells quantified by luciferase assay where a 96-well plate was first coated with 10 μg/ml of FN, then SUM159-M1a cells were incubated with 10 μg/ml of indicated antibodies or r-Tinagl1 at 4 C for 30 min, after when cells were seeded on the plate at 30 k cells per well, and 30 min after seeding, the plate was washed with PBS and quantified by luciferase assay.
Integrin α5β1 and αvβ1 are the major receptors for FN, and the interaction between FN and the integrin receptors triggers the activation of the downstream FAK signal pathway. To test whether Tinagl1 may interfere with cell adhesion mediated by the interaction between FN and its receptors integrin α5β1 and αvβ1, SUM159-M1a cells that were pre-incubated with r-Tinagl1 were seeded on the plates coated with FN or other ECM proteins for various period of time (5 min to 2 hours) and the number of adhered cells were quantified after washing. […] Next, SUM159-M1a cells that were pre-incubated with r-Tiangl1 or various integrin-blocking antibodies were seeded on the plate coated with FN, and relative numbers of attached cells were measured.
96-wells were coated with 10 μg/ml of indicated proteins. […] Cells were then lysed, and luciferase activity which represents cell number was measured using the Glomax 96 microplate luminometer (Promega). […]

LM2 cells [2] = test: LM2 orthotopic tumors, single or combined agent treatment; assay type: in vivo, NSG female mice
Protocol: FIG. 17A is an image of WB analyses where NSG female mice were injected with 10^4 LM2 cells by MFP injection, and intravenously treated with the indicated reagents twice per week when tumors reached to 2 mm in dimeter, then after 5 weeks of the treatments, the primary tumors of each group were collected and activation of EGFR and FAK in primary tumor of each group were tested by WB.
FIG. 17B is a graph illustrating tumor volumes of each treatment group from FIG. 17A.
FIG. 17C is a graph, quantifying ex vivo BLI results where lungs in mice from FIG. 17A were collected and spontaneous metastasis was examined at the endpoint.
Two molecular targeting reagents, ATN-161 (ATN) and Erlotinib (Erlo) were employed. ATN is an integrin α5β1 antagonist that inhibits the integrin signaling pathway and slows tumor progression. Erlotinib is a well-established small molecular inhibitor of EGFR and is clinically approved for cancer treatment. Mice orthotopically implanted with LM2 cells were split into 6 groups after the tumors reached 2 mm in diameter and subjected to various single or combined agent treatments twice per week [(1) PBS; (2) ATN 30 μg/mouse; (3) Erlo 100 mg/kg; (4) r-Tinagl1 30 μg/mouse; (5) ATN and Erlo; and (6) ATN, Erlo, and r-Tinagl1]. Referring to FIG. 17A, the inhibition of integrin/FAK and EGFR upon each treatment was validated by western blotting and TIC staining.
as §1

B1: r-Tinagl1: full length recombinant human Tinagl1 with 6×His tag at the C-terminus [SEQ ID NO.: 24], expressed in HEK293T cells (protein, listed as Homo sapiens)
chain: MWRCPLGLLLLLPLAGHLALGAQQGRGRRELAPGLHLRGIRDAGGRYCQEQDLCCRGRADDCALPYLGAICYCDLFCNRTVSDCCPDFWDFCLGVPPPFPPIQGCMHGGRIYPVLGTYWDNCNRCTCQENRQWQCDQEPCLVDPDMIKAINQGNYGWQAGNHSAFWGMTLDEGIRYRLGTIRPSSSVMNMHEIYTVLNPGEVLPTAFEASEKWPNLIHEPLDQGNCAGSWAFSTAAVASDRVSIHSLGHMTPVLSPQNLLSCDTHQQQGCRGGRLDGAWWFLRRRGVVSDHCYPFSGRERDEAGPAPPCMMHSRAMGRGKRQATAHCPNSYVNNNDIYQVTPVYRLGSNDKEIMKELMENGPVQALMEVHEDFFLYKGGIYSHTPVSLGRPERYRRHGTHSVKITGWGEETLPDGRTLKYWTAANSWGPAWGERGHFRIVRGVNECDIESFVLGVWGRVGMEDMGHHVDHHHHHH
modifications: C-terminal 6xHis tag
metastatic growth (BLI) (LM2 cells [1]; PBS for the first two weeks followed by r-Tinagl1 treatment): dramatically decreased metastatic growth
number of lung metastasis nodules (LM2 cells [1]; both r-Tinagl1 treatment groups, end of experiment): significantly reduced number of lung metastasis nodules
metastatic growth (BLI) (LM2 cells [1]; r-Tinagl1 immediately after injection (continuous)): significantly reduced metastatic growth
EGF-induced EGFR activation (EGFR): dramatically attenuated
cell adhesion on FN or other ECM proteins (SUM159-M1a cells; 10 μg/ml r-Tinagl1 pre-incubation, 5 min to 2 hours): blocked cell adhesion mediated by FN but not other ECM proteins
cell adhesion on FN (antibody blocking assay) (SUM159-M1a cells; 10 μg/ml, 30 min after seeding): significantly reduced cell adhesion
primary tumor growth (LM2 cells [2]; LM2, twice per week, ATN 30 μg/mouse, Erlo 100 mg/kg, r-Tinagl1 30 μg/mouse): significantly suppressed primary tumor growth
spontaneous lung metastasis (LM2 cells [2]; LM2 tumors, ex vivo BLI at endpoint): reduced spontaneous lung metastasis
